# Results from patent publication US20190040115A1 (IMMATICS BIOTECHNOLOGIES, published 2019).
# Molecular target: T1, HLA-A*02:01 (human)
# T1 construct: captured on streptavidin plates; also called peptide-receptive MHC molecules
# Experiment: UV peptide exchange ELISA (anti-b2m); yield grade: + >10%, ++ >20%, +++ >50, ++++ >75%
# From the text: Candidate peptides for T cell based therapies according to the present invention were further tested for their MHC binding capacity (affinity). The individual peptide-MHC complexes were produced by UV-ligand exchange, where a UV-sensitive peptide is cleaved upon UV-irradiation, and exchanged with the peptide of interest as analyzed. Only peptide candidates that can effectively bind and stabilize the peptide-receptive MHC molecules prevent dissociation of the MHC complexes. To determine the yield of the exchange reaction, an ELISA was performed based on the detection of the light chain (β2m) of stabilized MHC complexes. The assay was performed as generally described in Rodenko et al. (Rodenko et al., 2006).
# 96 well MAXISorp plates (NUNC) were coated over night with 2 ug/ml streptavidin in PBS at room temperature, washed 4× and blocked for 1 h at 37° C. in 2% BSA containing blocking buffer. Refolded HLA-A*02:01/MLA-001 monomers served as standards, covering the range of 15-500 ng/ml. Peptide-MHC monomers of the UV-exchange reaction were diluted 100 fold in blocking buffer. Samples were incubated for 1 h at 37° C., washed four times, incubated with 2 ug/ml HRP conjugated anti-β2m for 1 h at 37° C., washed again and detected with TMB solution that is stopped with […]. Absorption was measured at 450 nm. Candidate peptides that show a high exchange yield (preferably higher than 50%, most preferred higher than 75%) are generally preferred for a generation and production of antibodies or fragments thereof, and/or T cell receptors or fragments thereof, as they show sufficient avidity to the MHC molecules and prevent dissociation of the MHC complexes.
row,Binder,peptide exchange yield [%]
1,LLEEINHFL,50 to 75
2,RVAFKINSV,50 to 75
3,ALDDTVLQV,50 to 75
4,VLAVLGAVVAV,50 to 75
5,TLYEQEIEV,> 75
6,VVVDPIQSV,50 to 75
7,KALQFLEEV,> 75
8,ALFFQLVDV,20 to 50
9,FLPAGIVAV,> 75
10,TLDDIMAAV,50 to 75
11,KVSGVILSV,> 75
12,KLFTQIFGV,> 75
13,IAAGIFNDL,10 to 20
14,GLAGFFASV,> 75
15,ALDDIIYRA,50 to 75
16,LLPELRDWGV,50 to 75
17,FLDSLIYGA,> 75
18,ALDEPTTNL,50 to 75
19,SLIDRTIKM,50 to 75
20,TLLESIQHV,> 75
21,KLAEALYIA,50 to 75
22,FLNEDISKL,50 to 75
23,ALEPIDITV,50 to 75

row,Binder,peptide exchange yield [%]
1,TILATVPLV,> 75
2,FMYNFQLVTL,20 to 50
3,SVALVIHNV,> 75
4,ALIEVLQPLI,> 75
5,LLDPTNVFI,> 75
6,TLDGNPFLV,50 to 75
7,VLDSVDVRL,> 75
8,ILWDTLLRL,> 75
9,TLLEGLTEL,50 to 75
10,RLDEVSREL,50 to 75
11,SLPRPTPQA,50 to 75
12,SLADVVDTL,> 75
13,SIIPPLFTV,> 75
14,RMDEEFTKI,50 to 75
15,AIHTAILTL,20 to 50
16,GLIDLEANYL,> 75
17,ILADATAKM,> 75
18,FLPFLTTEV,> 75
19,GLCDSIITI,> 75
20,VISPHGIASV,> 75
21,KLKEAVEAI,20 to 50
22,ALMDTDGSGKLNL,50 to 75
23,YLDKMNNNI,> 75

row,Binder,peptide exchange yield [%]
1,FLDHEMVFL,> 75
2,VQIGDIVTV,> 75
3,VLLGENVEL,50 to 75
4,HLFETISQA,50 to 75
5,RLMANPEALKI,50 to 75
6,FAYDGKDYIA,> 75
7,KLLAATLLL,> 75
8,VLFSSPPVILL,> 75
9,KLIPSIIVL,50 to 75
10,GLFPSNFVTA,> 75
11,SLKSKVLSV,> 75
12,EVVDKINQV,10 to 20
13,SILDGLIHL,50 to 75
14,LLYEDIPDKV,50 to 75
15,YSDDIPHAL,20 to 50
16,TLGTATFTV,> 75
17,ALDSGFNSV,> 75
18,LLKDSIVQL,50 to 75
19,ALDDISESI,> 75
20,KVLGDVIEV,> 75
21,GVVHGVATV,> 75
